Assay results published in paper PMC7380489 (NAR Cancer, 2020).

B1: mouse ZFP568 residues 1-105 containing the first KRAB domain (1K) (domain or fragment)
chain: not shown
B2: human TRIM28 RBCC domain R184D (domain or fragment)
chain: CGVCRERLRPEREPRLLPCLHSACSACLGPAAPAAANSSGDGGAAGDGTVVDCPVCKQQCFSKDIVENYFMRDSGSKAATDAQDANQCCTSCEDNAPATSYCVECSEPLCETCVEAHQDVKYTKDHTVRSTGPAKSRDGERTVYCNVHKHEPLVLFCESCDTLTCRDCQLNAHKDHQYQFLEDAVRNQRKLLASLVKRLGDKHATLQKSTKEVRSSIRQVSDVQKRVQVDVKMAILQIMKELNKRGRVLVNDAQKVTEGQQERLERQHWTMTKIQKHQEHILRFASWALESDNNTALLLSKKLIYFQLHRAL

Tests used:
[1] = molecular target: B2; assay: AUC
AUC = molecular target: the molecule itself; assay: AUC

| stoichiometry N [1] | Binder | stoichiometry N (AUC) |
| --- | --- | --- |
| 2 RBCC chains per 1K (2:1) | B1 |  |
|  | B2 | 2 |
